Laboratory results taken from publication PMC3135403 (The Journal of Cell Biology, 2011).
One block for each binder: values may come before it.

Experiments:
[1] = target: T1, GST-BakΔTM (human, UniProt Q16611 1-186); experiment: SPR
T1 sequence (looked up): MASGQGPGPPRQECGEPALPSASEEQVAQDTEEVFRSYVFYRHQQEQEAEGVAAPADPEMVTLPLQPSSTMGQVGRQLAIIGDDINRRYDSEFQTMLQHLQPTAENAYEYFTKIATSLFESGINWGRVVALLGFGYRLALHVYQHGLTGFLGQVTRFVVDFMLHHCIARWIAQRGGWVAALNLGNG

[2] = target: T2, GST-Bak 93E/114E (human, UniProt Q16611 1-186, Bak 93E/114E (93E) | Bak 93E/114E (114E)); experiment: SPR
T2 sequence (looked up): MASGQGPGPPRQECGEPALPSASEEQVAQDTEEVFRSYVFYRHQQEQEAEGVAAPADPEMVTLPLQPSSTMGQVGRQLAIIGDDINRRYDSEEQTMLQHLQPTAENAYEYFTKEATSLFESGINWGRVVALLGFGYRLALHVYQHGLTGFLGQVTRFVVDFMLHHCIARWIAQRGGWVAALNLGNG

[3] = target: T3, GST-Bak 114E (human, UniProt Q16611 1-186, Bak 114E); experiment: SPR
T3 sequence (looked up): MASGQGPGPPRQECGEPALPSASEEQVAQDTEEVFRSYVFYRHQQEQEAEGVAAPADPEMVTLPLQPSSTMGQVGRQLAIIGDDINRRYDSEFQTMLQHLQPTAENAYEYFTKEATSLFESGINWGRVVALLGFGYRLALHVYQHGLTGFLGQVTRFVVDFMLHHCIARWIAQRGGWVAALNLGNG

[4] = target: T4, GST-Bak 93E (human, UniProt Q16611 1-186, Bak 93E); experiment: SPR
T4 sequence (looked up): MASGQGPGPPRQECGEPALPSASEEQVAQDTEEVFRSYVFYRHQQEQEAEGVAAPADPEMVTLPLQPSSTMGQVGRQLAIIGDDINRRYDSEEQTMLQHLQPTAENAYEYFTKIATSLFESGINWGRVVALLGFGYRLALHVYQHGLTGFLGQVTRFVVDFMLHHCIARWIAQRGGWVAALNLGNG

[5] = target: T5, GST-BakΔTM R36A (human, UniProt Q16611 1-186, R36A); experiment: SPR
T5 sequence (looked up): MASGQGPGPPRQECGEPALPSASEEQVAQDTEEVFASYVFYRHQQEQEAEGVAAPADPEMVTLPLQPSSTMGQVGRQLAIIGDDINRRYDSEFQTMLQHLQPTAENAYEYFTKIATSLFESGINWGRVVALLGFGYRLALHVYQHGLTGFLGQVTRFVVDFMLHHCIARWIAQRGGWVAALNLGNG

[6] = target: T1, GST-BakΔTM; experiment: SPR; remark: listed apart in the source
[7] = target: the molecule itself; experiment: SEC

B2: Noxa (full-length, S peptide and His6 tagged) (natural protein, human, UniProt Q13794-1 1-54, looked up)
chain: MPGKKARKNAQPSPARAPAELEVECATQLRRFGDKLNFRQKLLNLISKLFCSGT
binding result [2]: binds | binding result [3]: binds | binding result [4]: binds | binding result [5]: binds | Kd [6]: 24 nM

B3: His6-Bak R36A (domain or fragment, human, UniProt Q16611 1-186, looked up)
chain: MASGQGPGPPRQECGEPALPSASEEQVAQDTEEVFASYVFYRHQQEQEAEGVAAPADPEMVTLPLQPSSTMGQVGRQLAIIGDDINRRYDSEFQTMLQHLQPTAENAYEYFTKIATSLFESGINWGRVVALLGFGYRLALHVYQHGLTGFLGQVTRFVVDFMLHHCIARWIAQRGGWVAALNLGNG
binding result [7]: binds

The next lines start with the values.

binding result [1]: binds
B1: tBid (domain or fragment, human, UniProt P55957 61-195, looked up)
chain: GNRSSHSRLGRIEADSESQEDIIRNIARHLAQVGDSMDRSIPPGLVNGLALQLRNTSRSEEDRNRDLATALEQLLQAYPRDMEKEKTMLVLALLLAKKVASHTPSLLRDVFHTTVNFINQNLRTYVRSLARNGMD

binding result [1]: binds
Binder: MPGKKARKNAQPSPARAPAELEVECATQLRRFGDKLNFRQ (domain or fragment, human, UniProt Q13794-1 1-40, looked up) [NoxaΔCT]
